From article PMC10902354, “Deficiency in PHD2-mediated hydroxylation of HIF2α underlies Pacak-Zhuang syndrome” (Communications Biology, 2024)
“Also recorded” adds a separate entry of the source. Square brackets hold non-standard residues; d marks the D form. Hyp = O=C(O)[C@@H]1C[C@@H](O)CN1

Tests used:
[1] = target: T1, PHD2 (prolyl-hydroxylase domain, residues 181–426) (Homo sapiens, UniProt Q9GZT9); experiment: Aggregation of PHD2 by HIF2α-CODD peptides in MST experiments (MST time traces); assay type: physicochemical; conditions: peptide dilution series with PHD2, room temperature
T1 construct: encodes for His6-PHD2 (prolyl-hydroxylase domain, residues 181–426); His6 (N, cleaved yes); made in house; host or cells: E. coli BL21(DE3)
T1 sequence (Q9GZT9 181-426): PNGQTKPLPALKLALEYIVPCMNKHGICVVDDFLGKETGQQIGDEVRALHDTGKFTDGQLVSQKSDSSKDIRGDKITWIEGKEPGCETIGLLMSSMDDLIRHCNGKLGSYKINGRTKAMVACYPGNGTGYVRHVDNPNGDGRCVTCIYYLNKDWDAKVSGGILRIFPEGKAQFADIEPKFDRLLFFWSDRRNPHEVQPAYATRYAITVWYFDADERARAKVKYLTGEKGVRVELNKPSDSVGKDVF
Experimental: MST measurements were taken using a Monolith NT.115 (Nanotemper Technologies) at room temperature using standard MST capillaries (Nanotemper Technologies). A 2x stock of PHD2-647 was created by diluting PHD2-647 from a 10 µM stock to 50 nM with MST Buffer (50 mM Tris–HCl pH 7.5, 1 mM NOG, 10 µM FeSO4, 5 mg/ml BSA). For each HIFα-CODD peptide, ~1 mg dry weight of peptide was dissolved in 200 µl of 50 mM Tris–HCl pH 8.0 and concentrations were measured using UV absorbance at 280 nm for most peptides and BCA assay (Thermo Scientific) for Y532C and Y532H peptides using known concentrations of the WT HIF2α-CODD peptide to create a standard curve. The UV absorbance extinction coefficients for all HIF1α-CODD and HIF2α-CODD peptides used in this study is 1490 M^−1 cm^−1 except for HIF2α-CODD D539Y (2980 M^−1 cm^−1), HIF2α-CODD G537W (6990 M^−1 cm^−1) and HIF2α-CODD Y532C and Y532H which were not analyzed via absorbance at 280 nm due to the lack of any Tyrosine or Tryptophan residues in the peptides. For each experiment, 16 different concentrations of 15 µl peptide solution were created by 2-fold serial dilution of the peptide stock in 50 mM Tris–HCl pH 8.0. Each of the 16 peptide solutions was then mixed with an equal volume (15 µl) of 2× PHD2-647 solution resulting in a final 1× concentration of PHD2-647 at 25 nM. […] MST measurements were taken at 20% fluorescence excitation LED power and 40% (medium) infrared laser power. For each MST time trace initial fluorescence (pre-infrared laser activation) was recorded for 5 s, infrared laser on time was 20 s, and fluorescence post-infrared laser deactivation was recorded for 3 s. MST data was analyzed using the M.O. Affinity Analysis software (Nanotemper Technologies) and the 1:1 Kd binding model was fit to experimental data. […]
(also on this page, place not known: Relative Fluorescence Relative Fluorescence -10 30 Relative Fluorescence -10 30 Relative Fluorescence -10 30 Relative Fluorescence -10 30 Relative Fluorescence aggrega?on, (f) curves HIF2α-CODD)

[2] = target: T1, PHD2 (prolyl-hydroxylase domain, residues 181–426); experiment: Microscale thermophoresis (MST) binding of HIFα-CODD peptides to the catalytic domain of PHD2; conditions: for Binding to PHD2 (in words): 25 nM PHD2-647, with NOG, room temperature; for Kd (MST-determined PHD2/HIFα-CODD complex dissociation constant): 25 nM Alexa 647-labeled PHD2, Tris–HCl with NOG (1 mM NOG, 10 µM FeSO4, 5 mg/ml BSA in 2x MST Buffer pH 7.5), peptide in Tris pH 8.0, room temperature, 10 min incubation, 1:1 Kd model, triplicate measurements, highest concentration omitted for Y532H and P531A (aggregation)
Experimental: To determine if there is a direct effect of HIF2α mutations on PHD2 binding, we devised a quantitative method for determining the dissociation constant (Kd) of the HIF2α-CODD peptides and the catalytic domain of PHD2 using microscale thermophoresis (MST)[13],[14] in the presence of the PHD inhibitor n-oxalylglycine (NOG) to inhibit reaction turnover.
PHD2 was purified via a previously described but modified procedure[4],[30]. […] Cells were grown to an OD600 of 0.8 at 37 °C and expression of His6-PHD2 was induced with a final concentration of 0.5 mM IPTG. Cells were grown for an additional 3 h post-induction at 37 °C and harvested via centrifugation. Cell pellets were either used immediately for purification or stored at −80 °C for later use. Cell pellets were resuspended in Lysis Buffer (50 mM Tris–HCl pH 7.9, 500 mM NaCl, 5 mM Imidazole) containing 1x SigmaFast protease inhibitor cocktail (Sigma-Aldrich) and lysed with 3 passes through an Emulsiflex-C3 cell disruptor (Avestin) at 20-30 kPSI. […] Clarified lysates were applied to a 2 ml Ni-NTA (Thermo Scientific) column pre-equilibrated with Lysis Buffer. The beads were washed with 10 ml Lysis buffer and 2 × 30 ml of Wash Buffer (50 mM Tris–HCl pH 7.9, 500 mM NaCl, 30 mM Imidazole). His6-PHD2 was eluted by applying 10 ml Elution Buffer (50 mM Tris–HCl pH 7.9, 500 mM NaCl, 1 M Imidazole) to the column. Ni-NTA purified His6-PHD2 was dialyzed using a 10 kDa cut-off dialysis membrane against 2 L of Dialysis Buffer (50 mM Tris–HCl pH 7.5) for 4 h at 4 °C. […] Dialysis and thrombin cleavage were allowed to continue overnight at 4 °C. Thrombin-cleaved PHD2 was collected and applied to a 2 ml Ni-NTA column pre-equilibrated with Dialysis Buffer to remove uncleaved protein and cleaved His6 tags. The flow-through was collected and the beads were washed with 10 ml of Dialysis Buffer supplemented with 5 mM imidazole. The 5 mM imidazole eluate was pooled with the flow through and concentrated with an Amicon 10 kDa cut-off centrifugal concentrator (Millipore) to a volume of ~600 µl. The concentrated PHD2 was then applied to a Superdex 75 Increase 10/300 GL column (Cytiva) equilibrated with Dialysis Buffer or Labeling Buffer (50 mM HEPES pH 7.5, 150 mM NaCl) depending on the intended use of the sample. Eluted fractions containing PHD2 were collected and pooled. For the His6-PHD2 used in the indirect hydroxylation assay, no thrombin was added during dialysis steps therefore the His6-tag was not removed and the subsequent passage of the sample through Ni-NTA beads to remove His6-tags was not performed. Otherwise, the purification protocol for His6-PHD2 is the same as thrombin-cleaved PHD2. All purification steps were analyzed by SDS–PAGE and the Superdex 75 Increase chromatogram was used to assess size and aggregation, see Supplementary Fig. 5 for a representative purification assessment.
Labeling was conducted at room temperature for 1 h in the dark. Excess dye was then removed first by the passage of the sample through a PD-10 desalting column containing Sephadex G-25 resin (Cytiva) equilibrated with Dialysis Buffer and then any remaining excess dye was removed via repeated 10-fold dilution in Dialysis Buffer and subsequent concentration in an Amicon 10 kDa cut off centrifugal filter until the dye could no longer be detected in the concentrator flow through by Absorbance at 650 nm.
MST measurements were taken using a Monolith NT.115 (Nanotemper Technologies) at room temperature using standard MST capillaries (Nanotemper Technologies). […] For each HIFα-CODD peptide, ~1 mg dry weight of peptide was dissolved in 200 µl of 50 mM Tris–HCl pH 8.0 and concentrations were measured using UV absorbance at 280 nm for most peptides and BCA assay (Thermo Scientific) for Y532C and Y532H peptides using known concentrations of the WT HIF2α-CODD peptide to create a standard curve.

[3] = target: Alexa 647 labeled PHD2 (catalytic / prolyl-hydroxylase domain, residues 181-426) (human) (UniProt Q9GZT9); experiment: MST; 25 nM Alexa 647 labeled PHD2, unlabeled peptide in 16 two-fold dilutions; room temperature; MST Buffer 50 mM Tris-HCl pH 7.5, 1 mM NOG, 10 µM FeSO4, 5 mg/ml BSA mixed 1:1 with peptide in 50 mM Tris-HCl pH 8.0; 1:1 Kd model; triplicate
Sequence of Alexa 647 labeled PHD2 (catalytic / prolyl-hydroxylase domain, residues 181-426) (human) (Q9GZT9 181-426): as above

PHD = conditions: cited from earlier work
Excerpt: (§1) Pacak-Zhuang syndrome is a pseudohypoxic disease resulting from the inappropriate stabilization of HIF2α under normoxic conditions caused by gain-of-function missense mutations in the CODD region of HIF2α. These missense mutations stabilize HIF2α by ultimately inhibiting proteasome-mediated destruction of HIF2α[2],[6],[21]. Previously, we hypothesized that the mutations in the HIF2α-CODD region disrupted the pVHL/HIF2α interface. This appeared to be true for most Class 1 mutants examined to date.

pVHL = conditions: prolyl-hydroxylated HIF2α peptides; cited from earlier work
Excerpt: as §1

Row | Compound | Aggregation of PHD2 in MST experiments [1] | Binding to PHD2 (in words) ([2]; MST) | Kd (MST-determined PHD2/HIFα-CODD complex dissociation constant) ([2]; MST) | also measured
1 | CC[C@H](C)[C@H](NC(=O)[C@H](Cc1ccc(O)cc1)NC(=O)[C@@H]1CCCN1C(=O)[C@H](C)NC(=O)[C@H](CC(C)C)NC(=O)[C@@H](NC(=O)[C@H](CCC(=O)O)NC(=O)[C@H](CC(C)C)NC(=O)[C@H](CC(=O)O)NC(=O)[C@H](CC(C)C)NC(=O)[C@H](CCC(=O)O)NC(C)=O)[C@@H](C)O)C(=O)N1CCC[C@H]1C(=O)N[C@@H](CCSC)C(=O)N[C@@H](CC(=O)O)C(=O)NCC(=O)N[C@@H](CCC(=O)O)C(=O)N[C@@H](CC(=O)O)C(=O)N[C@@H](Cc1ccccc1)C(=O)N[C@@H](CCC(N)=O)C(=O)N[C@@H](CC(C)C)C(N)=O [HIF2α WT] | no aggrega?on | showing binding |  | Kd ([2]; read-out: Kd (MST-determined PHD2/HIFα-CODD complex dissociation constant)): 34 ± 2 µM
2 | HIF2α WT-OH: synthetically hydroxylated WT HIF2α-CODD-OH peptide, negative control (Ac-ELDLETLA[Hyp]YIPMDGEDFQL-NH2; SMILES CC[C@H](C)[C@H](NC(=O)[C@H](Cc1ccc(O)cc1)NC(=O)[C@@H]1C[C@@H](O)CN1C(=O)[C@H](C)NC(=O)[C@H](CC(C)C)NC(=O)[C@@H](NC(=O)[C@H](CCC(=O)O)NC(=O)[C@H](CC(C)C)NC(=O)[C@H](CC(=O)O)NC(=O)[C@H](CC(C)C)NC(=O)[C@H](CCC(=O)O)NC(C)=O)[C@@H](C)O)C(=O)N1CCC[C@H]1C(=O)N[C@@H](CCSC)C(=O)N[C@@H](CC(=O)O)C(=O)NCC(=O)N[C@@H](CCC(=O)O)C(=O)N[C@@H](CC(=O)O)C(=O)N[C@@H](Cc1ccccc1)C(=O)N[C@@H](CCC(N)=O)C(=O)N[C@@H](CC(C)C)C(N)=O) | no ag grega?on | did not bind to PHD2 | No Binding | Binding to PHD2 (in words) ([2]; MST, listed as WT-OH HIF2α-CODD): no
3 | HIF2α-CODD WT peptide (from UniProt Q99814 523-542) |  |  |  | Kd [3]: 34 µM
4 | HIF2α P531A: Class 1 mutant HIF2α-CODD peptide (Ac-ELDLETLAAYIPMDGEDFQL-NH2) | some evidence of aggrega?on at the highest concentra?on |  | No binding^a | 
5 | HIF2α A530V: Class 1 mutant HIF2α-CODD peptide (Ac-ELDLETLVPYIPMDGEDFQL-NH2) |  |  | No binding | PHD2 affinity / Kd compared with another peptide (in words) ([2]; MST, with NOG): significant effect on PHD2 binding affinity; also recorded: more detrimental to the interaction than A530T; Kd (Fit Results, Fit Model Kd) ([2]; MST, target WT-PHD2(181-426), TargetConcentration 2.5e-8, ligand HIF2a-CODD peptide, MST-Power Medium, Excitation-Power 20 Nano - RED, hot region 19 to 20, unit of Kd not printed (doses of the same sheet are in M), Fig. 1c source data): 0.03648; PHD-mediated hydroxylation (in words) (PHD): appeared to decrease PHD-mediated hydroxylation; Binding affinity for pVHL (in words) (pVHL): no effect on pVHL binding
